Assays:
[1] = Release kinetics of bone growth factor and antimicrobial peptide from cement pellets into culture medium; format: physicochemical; details: for cumulative release of TGFβ, of the original amount mixed in the cement: ELISA
Experimental: The release kinetics of the bone growth factor and of the antimicrobial peptide from bone substitute have been determined as follows:
In the release experiments the cement powder (40 mg) was mixed on a glass plate with TGFβ-containing liquid (13.3 μl), giving a paste of 53 mg cement with 133 ng TGFβ and 250 μg DHVAR 5. After 1 min of mixing the cement paste was applied into a Teflon mould with a diameter of 5 mm and measuring 1 mm in height. After 2 min the cement pellets were removed from the mould and added to the wells of 12-well culture plates (Costar, Cambridge, Mass., USA). Complete culture medium (Dulbecco's modified Eagle's medium (DMEM, Gibco-BRL Life Technologies Ltd. Paisley, UK) with 10% fetal bovine serum (FBS; Gibco) was added at 1 ml per well, to wells containing a TGFβ DHVAR5 enriched cement pellet as described above. The multiwell plates were incubated at 37° C. in 5% CO2 and 95% humidity. Culture medium was renewed completely at suitable time intervals (0.5, 1, 2, 4, 24, 48 hr and 1, 2, 4 and 8 weeks), and the medium samples were stored at −20° C. until used for TGFβ and DHVAR 5 determination. TGFβ was determined in the collected culture medium samples using a commercially available enzyme-linked immunosorbant assay (ELISA) (Promega, Madison, Wis., USA). A few cement pellets were crushed in the well with a mortar at 48 hr, after removal of the medium. The fragments were incubated in fresh medium for 1 hr; medium was then removed and stored for DHVAR5 and TGFβ determination. The amount of DHVAR5 released was determined by subjecting medium samples to capillary zone electrophoresis. Biological activity against S. aureus was confirmed in a standard killing assay. TGFβ was assayed by standard immunological analysis and by examination of the potency to promote cell growth as described above. The release of TGFβ from a cement pellet that incorporated TGFβ and DHVAR5 (133 ng TGFβ and 250 μg DHVAR 5 in 53 mg cement) at the time of setting of the cement, is shown in FIGS. 3 and 4 respectively. A rapid TGFβ release was found in the first 4 hr followed by a much slower release. The cumulative release found after 4 hr was 0.5% of the original amount of TGFβ mixed in the cement and increased to 1% after 48 hr. Release of TGFβ continued slowly hereafter, with maximal 0.1% released during the next 8 weeks (data not shown).
Similar results were obtained with peptides of Seq. ID Nos. 1-3, 5-7.

S. aureus = experiment: Standard killing assay of released peptide; format: cell-based; details: medium samples from release experiment
Experimental: In the release experiments the cement powder (40 mg) was mixed on a glass plate with TGFβ-containing liquid (13.3 μl), giving a paste of 53 mg cement with 133 ng TGFβ and 250 μg DHVAR 5. After 1 min of mixing the cement paste was applied into a Teflon mould with a diameter of 5 mm and measuring 1 mm in height. After 2 min the cement pellets were removed from the mould and added to the wells of 12-well culture plates (Costar, Cambridge, Mass., USA). Complete culture medium (Dulbecco's modified Eagle's medium (DMEM, Gibco-BRL Life Technologies Ltd. Paisley, UK) with 10% fetal bovine serum (FBS; Gibco) was added at 1 ml per well, to wells containing a TGFβ DHVAR5 enriched cement pellet as described above. The multiwell plates were incubated at 37° C. in 5% CO2 and 95% humidity. Culture medium was renewed completely at suitable time intervals (0.5, 1, 2, 4, 24, 48 hr and 1, 2, 4 and 8 weeks), and the medium samples were stored at −20° C. until used for TGFβ and DHVAR 5 determination. TGFβ was determined in the collected culture medium samples using a commercially available enzyme-linked immunosorbant assay (ELISA) (Promega, Madison, Wis., USA). A few cement pellets were crushed in the well with a mortar at 48 hr, after removal of the medium. […] The amount of DHVAR5 released was determined by subjecting medium samples to capillary zone electrophoresis. […]

TGFβ
cumulative release of TGFβ, of the original amount mixed in the cement ([1]; after 4 hr, cement pellet 133 ng TGFβ and 250 μg DHVAR 5 in 53 mg cement, DMEM with 10% FBS, 37° C.): 0.5%
cumulative release of TGFβ, of the original amount mixed in the cement ([1]; after 48 hr, same pellet, DMEM with 10% FBS, 37° C.): 1%
TGFβ released during the next 8 weeks ([1]; after the first 48 hr, maximal, data not shown): ≤ 0.1%
TGFβ released within 1 hr after fragmentation ([1]; pellets fragmented at 48 hr, fresh medium 1 hr, data not shown): approximately 0.5%

LLLFLLKKRKKRKY [DHVAR-5, anti-microbial peptide, synthetic derivative based on histatin 5 carboxyterminal]
antimicrobial peptide released from the cement material ([1]; after 4 days): more than 80%
release of DHVAR 5 from the cement material ([1]; within 48 hours, capillary zone electrophoresis, DMEM with 10% FBS, 37° C.): 70%
Biological activity against S. aureus of released peptide (S. aureus): confirmed

gentamicin [reference compound]
release kinetics from cement ([1]; in a similar test): incomplete and slow release kinetics

Source: patent publication US20040131678A1, “Resorbable bone cement containing active agents” (priority 2001, published 2004)
